Test [1] concerns the target human Claudin-6 (CLDN6) (human) (UniProt P56747). Nature of the test: FACS, 0.3 ug Ab, ARK2 cells (2nd Ab only 1351.21).
Test [2] shares this target. Briefly: FACS, 1.5 ug Ab, 293T clone expressing human CLDN6 (2nd Ab only 768.07). (In flow cytometry, cells or beads pass a laser one at a time.)
Test [3] shares this target. Nature of the test: FACS, 1.5 ug Ab, OVCA429 cells (2nd Ab only 885.77).
For test [4] the target is unchanged. Nature of the test: FACS, 0.3 ug Ab, 293T clone expressing human CLDN6 (2nd Ab only 768.07).
Test [5] shares this target. Nature of the test: FACS, 1.5 ug Ab, ARK2 cells (2nd Ab only 1351.21).
A further test has as its target T1, mouse Claudin-6 (CLDN6) (mouse, UniProt Q9Z262 1-219).
T1 construct: whole, on cells; GFP fusion on engineered HEK293T cells; also called Mouse CLDN6; murine CLDN6
T1 sequence (looked up): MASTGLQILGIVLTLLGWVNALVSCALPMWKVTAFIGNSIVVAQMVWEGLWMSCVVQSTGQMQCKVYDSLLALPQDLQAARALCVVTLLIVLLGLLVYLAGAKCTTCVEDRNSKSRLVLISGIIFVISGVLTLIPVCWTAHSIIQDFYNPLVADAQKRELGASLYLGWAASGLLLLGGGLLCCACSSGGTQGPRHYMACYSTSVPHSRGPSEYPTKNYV
Nature of the test: FACS, 293T clone expressing mouse CLDN6, dose not stated (2nd Ab only 1061.72). As for the experimental part: Two doses (1.5 μg or 0.3 μg) of the humanized antibodies were tested for binding to either human CLDN6 or murine CLDN6 which proteins were expressed by engineered 293T clones.

B1: AB9-3 (antibody, V domains shown)
VH: QVQLVQSGAEVKKPGASVKMSCKASGYRFTDYNMHWVRQAPGQGLEWIGYINPNNGGTNYAQKFQGRATLTVDTSTSTAYMELSSLRSEDTAVYYCARDYLYFFDCWGQGTLLTVSS
VL: DIQMTQSPSSLSASVGDRVTITCLASQTIGTWLAWYQQKPGKAPKLLIYAAASLADGVPSRFSGSGSGTDFTFTISSLQPEDFVTYYCQQLYSIPRTFGQGTKLEIK
Consider B1, for which the FACS fluorescence in test [1] was 1140; in test [2], 24600; in test [3], 1260; in test [4], 9500; in test [5], 1470.

B2: AB18-4 (antibody, V domains shown)
VH: QVQLVQSGAEVKKPGASVKVSCKASGYSFTGYNMNWVRQAPGQGLEWMGNIDPYYGGSTYAQKFQGRVTMTVDTSTSTVYMELSSLRSEDTAVYYCARERSGYVFSAMDYWGQGTLVTVSS
VL: DIVMTQSPDSLAVSLGERVTMNCKSSQSVLFSSNQKNYLAWYQQKPGQPPKLLIYWASTRESGVPDRFSGSGSGTDFTLTISSVQAEDVAVYYCHQYLSSRTFGQGTKLEIK
Consider B2, for which the FACS fluorescence in test [1] is 1130; in test [2], 54400; in test [3], 3220; in test [4], 32400; in test [5], 1380.

B3: AB18-6 (antibody, V domains shown)
VH: QVQLVQSGAEVKKPGASVKISCKASGYSFTGYNMNWVRQAPGQGLEWIGNIDPYYGGSTYAQKFQGRATLTVDTSTSTAYMELSSLRSEDTAVYYCARERSGYVFSAMDYWGQGTLVTVSS
VL: DIVMTQSPDSLAVSLGERVTMNCKSSQSVLFSSNQKNYLAWYQQKPGQPPKLLIYWASTRESGVPDRFSGSGSGTDFTLTISSVQAEDVAVYYCHQYLSSRTFGQGTKLEIK
Take B3: the FACS fluorescence in test [1] was 1390; in test [2] it was 58500; in test [3], 6750; in test [4], 26900; in test [5], 1940.

B4: AB3-3 (antibody, V domains shown)
VH: EVQLLESGGGLVQPGGSMRLSCAASGFTFSNYWMNWVRQAPGKGLEWVAQIRLKSDNYATHYADSVKGRFTISRDDSKNTVYLQMNSLRAEDTGVYYCNDGPPSGCWGQGTLLTVSS
VL: DIQMTQSPSSLSASVGDRVTITCRISENIYSYLAWYQQKPGKAPKLLVYNAKILVEGVPSRFSGSGSGTDFTLTISSLQPEDFGTYYCQHHYTVPWTFGQGTKLEIK
notes: humanized
For the molecule B4, the FACS fluorescence turned out to be 1160 in test [1]; 340000 in test [2]; 88700 in test [3]; 251000 in test [4]; 54900 in test [5]; 23000 in the test with mouse Claudin-6 (CLDN6).

B5: AB3-2 (antibody, V domains shown)
VH: EVQLLESGGGLVQPGGSMRLSCAASGFTFSNYWMNWVRQAPGKGLEWVAQIRLKSDNYATHYADSVKGRFTISRDDSKNTVYLQMNSLRAEDTGVYYCNDGPPSGCWGQGTLLTVSS
VL: DIQMTQSPSSLSASVGDRVTITCRISENIYSYLAWYQQKPGKAPKLLIYNAKILVEGVPSRFSGSGSGTDFTLTISSLQPEDFATYYCQHHYTVPWTFGQGTKLEIK
notes: humanized
As to B5, the FACS fluorescence was 14700 in test [1]; 396000 in test [2]; 85900 in test [3]; 309000 in test [4]; 33600 in test [5]; 31700 in the test with mouse Claudin-6 (CLDN6).

B6: AB9-chim (antibody, V domains shown)
VH: EVQLQQSGPELVKPGASVKMSCKASGYRFTDYNMHWVKQSHGKSLEWIGYINPNNGGTNYNQNFKGKATLTVNKSSSTAYMELRSLTSEDSAAYYCARDYLYFFDCWGQGTTLTVSS
VL: DIQMTQSPASQSASLGESVTITCLASQTIGTWLAWYQQKPGKSPQLLIYAAASLADGVPSRFSGSGSGTRFSFKISSLQAEDFVSYYCQQLYSIPRTFGGGTKLEIK
Regarding B6, the FACS fluorescence in test [1] is 3510; in test [2] it was 72000; in test [3], 3570; in test [4], 46700; in test [5] it was 4490.

B7: AB1-7 (antibody, V domains shown)
VH: QVQLVQSGAEVKKPGASVKMSCKASGYTFTTYTMHWVRQAPGQGLEWIGFINPSSGYTDYAQKFQGRVTLTADTSTSTVYMELSSLRSEDTAVYYCANGDYYVAYWGQGTLVTVSS
VL: DIQLTQSPSSLSASVGDRVTMTCTASSSVSSTYFHWYQQKPGKAPKLLIYSTSNLASGVPSRFSGSGSGTDYTLTISSMQPEDAATYYCHQYHRSPLTFGQGTKLEIK
notes: humanized
On to B7, for which the FACS fluorescence in test [1] came to 4440; in test [2] it was 207000; in test [3], 44700; in test [4], 79200; in test [5], 11200; with mouse Claudin-6 (CLDN6), 99700.

B8: AB1-4 (antibody, V domains shown)
VH: QVQLVQSGAEVKKPGASVKVSCKASGYTFTTYTMHWVRQAPGQGLEWMGFINPSSGYTDYAQKFQGRVTMTADTSTSTVYMELSSLRSEDTAVYYCANGDYYVAYWGQGTLVTVSS
VL: DIQLTQSPSSLSASVGDRVTMTCTASSSVSSTYFHWYQQKPGKAPKLLIYSTSNLASGVPSRFSGSGSGTDYTLTISSMQPEDAATYYCHQYHRSPLTFGQGTKLEIK
notes: humanized
For the molecule B8, the FACS fluorescence in test [1] worked out at 3640; in test [2], 197000; in test [3], 34600; in test [4] it was 102000; in test [5] it was 10000; with mouse Claudin-6 (CLDN6), 75900.

B9: AB1-5 (antibody, V domains shown)
VH: QVQLVQSGAEVKKPGASVKVSCKASGYTFTTYTMHWVRQAPGQGLEWMGFINPSSGYTDYAQKFQGRVTMTADTSTSTVYMELSSLRSEDTAVYYCANGDYYVAYWGQGTLVTVSS
VL: DIQLTQSPSSLSASVGDRVTMTCTASSSVSSTYFHWYQQKPGKAPKLWIYSTSNLASGVPSRFSGSGSGTDYTLTISSMQPEDAATYYCHQYHRSPLTFGQGTKLEIK
notes: humanized
On to B9, for which the FACS fluorescence in test [1] is 7490; in test [2], 213000; in test [3] it was 54300; in test [4], 138000; in test [5], 22400; in the test with mouse Claudin-6 (CLDN6), 128000.

B10: AB1-3 (antibody, V domains shown)
VH: QVQLVQSGAEVKKPGASVKVSCKASGYTFTTYTMHWVRQAPGQGLEWMGFINPSSGYTDYAQKFQGRVTMTADTSTSTVYMELSSLRSEDTAVYYCANGDYYVAYWGQGTLVTVSS
VL: DIQMTQSPSSLSASVGDRVTITCTASSSVSSTYFHWYQQKPGKAPKLLIYSTSNLASGVPSRFSGSGSGTDYTLTISSLQPEDFATYYCHQYHRSPLTFGQGTKLEIK
notes: humanized
With B10, the FACS fluorescence in test [1] worked out at 2830; in test [2] it was 142000; in test [3], 27500; in test [4], 142000; in test [5], 10800; with mouse Claudin-6 (CLDN6), 89300.

B11: AB1-8 (antibody, V domains shown)
VH: QVQLVQSGAEVKKPGASVKMSCKASGYTFTTYTMHWVRQAPGQGLEWIGFINPSSGYTDYAQKFQGRVTLTADTSTSTVYMELSSLRSEDTAVYYCANGDYYVAYWGQGTLVTVSS
VL: DIQLTQSPSSLSASVGDRVTMTCTASSSVSSTYFHWYQQKPGKAPKLWIYSTSNLASGVPSRFSGSGSGTDYTLTISSMQPEDAATYYCHQYHRSPLTFGQGTKLEIK
notes: humanized
As to B11, the FACS fluorescence in test [1] came to 5810; in test [2], 210000; in test [3], 66000; in test [4], 98800; in test [5], 17600; with mouse Claudin-6 (CLDN6), 122000.

The record behind these values is patent publication US20230049752A1 (University of California, published 2023).
